Experimental data from patent publication US20260056186A1 (JIANGSU HENGRUI PHARMACEUTICALS, published 2026).
Read-outs that look alike come from different tables or passages of the source.

T1: APRIL (Acro Biosystems, Cat: APL-H52D1) (UniProt O75888 115-250, limits assumed)
T1 construct: also called ARPIL
T1 sequence (looked up): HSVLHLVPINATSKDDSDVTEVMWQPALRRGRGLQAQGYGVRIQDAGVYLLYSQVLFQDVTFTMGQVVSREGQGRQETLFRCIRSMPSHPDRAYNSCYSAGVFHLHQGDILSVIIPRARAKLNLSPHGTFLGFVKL


Experiments:
[1] = target: T2, BAFF (PeproTech, Cat: 310-13) (UniProt Q9Y275 134-285); assay: ELISA, BAFF coated; reference telitacicept
Procedure: (§1) The capabilities of TACI-BCMA fusion proteins (B575701, B575702, B575703, and B575704) to bind to BAFF and APRIL were assessed by ELISA as follows: BAFF (PeproTech, Cat: 310-13) or ARPIL (Acro Biosystems, Cat: APL-H52D1) was diluted to 1 μg/mL with PBS, and a 96-well plate (Costar, Cat: 3590) was coated with the dilution overnight at 4° C. The plate was washed with PBST and blocked with Blocking Buffer (PBST containing 1% BSA) at 37° C. for 1 h. The plate was tapped. The test antibodies were diluted with Blocking Buffer. Incubation was performed at 37° C. for 1.5 h. The plate was washed with PBST. An HRP-mouse anti-human Fc antibody (GenScript, Cat: A01854-200) was diluted with Blocking Buffer. Incubation was performed at 37° C. for 40 min. The plate was washed with PBST. 100 μL of TMB substrate solution (Biopanda, Cat: TMB-S-003) was added, and color development was performed at 37° C. for 3 min. 100 μL of ELISA stop solution (Solarbio, Cat: C1058) was added. OD450 was measured.
(§2) The capability of B575702 to bind to BAFF was consistent with that of B575704, and their EC₅₀ values decreased to ¼ of that of telitacicept. The capability of B575701 to bind to BAFF was consistent with that of B575703, and their EC₅₀ values decreased to ½ of that of telitacicept.

[2] = target: T2, BAFF (PeproTech, Cat: 310-13); assay: ELISA, BAFF coated at 1 ug/mL, anti-human Fc-HRP, OD450
Procedure: as §1, §2

[3] = target: T1, APRIL (Acro Biosystems, Cat: APL-H52D1); assay: ELISA, APRIL coated at 1 ug/mL, anti-human Fc-HRP, OD450
Procedure: as §1
(§3) The capabilities of the 4 fusion proteins to bind to APRIL were all stronger than that of telitacicept, and their EC₅₀ values decreased to ¼ to ⅓ of that of telitacicept.

[4] = target: T1, APRIL (Acro Biosystems, Cat: APL-H52D1); assay: ELISA, APRIL coated; reference telitacicept; range told of the 4 fusion proteins, upper end tied to B575703 by Table 5
Procedure: as §1, §3

[5] = target: T1, APRIL (Acro Biosystems, Cat: APL-H52D1); assay: ELISA, APRIL coated at 1 ug/mL, anti-human Fc-HRP, OD450; remark: listed apart in the source
Procedure: as §1, with “B613301, B613302, and B613303, which are” for “TACI-BCMA”, “of anifrolumab” for “(B575701, B575702, B575703,”, “TACI-BCMA,” for “B575704)”, “follows: [0548]” for “follows:”

[6] = target: T1, APRIL (Acro Biosystems, Cat: APL-H52D1); assay: ELISA, APRIL coated; reference telitacicept; range told of the 3 fusion proteins, upper end tied to B613301 by Table 8
Procedure: as §1, with “B613301, B613302, and B613303, which are” for “TACI-BCMA”, “of anifrolumab” for “(B575701, B575702, B575703,”, “TACI-BCMA,” for “B575704)”, “follows: [0548]” for “follows:”

[7] = target: T1, APRIL (Acro Biosystems, Cat: APL-H52D1); assay: ELISA, APRIL coated; reference telitacicept; range told of the 3 fusion proteins, lower end tied to B613302 by Table 8
Procedure: as §1, with “B613301, B613302, and B613303, which are” for “TACI-BCMA”, “of anifrolumab” for “(B575701, B575702, B575703,”, “TACI-BCMA,” for “B575704)”, “follows: [0548]” for “follows:”

[8] = target: T1, APRIL (Acro Biosystems, Cat: APL-H52D1); assay: ELISA, APRIL coated; reference telitacicept; range told of the 4 fusion proteins, lower end tied to B575702 by Table 5
Procedure: as §1, §3

| EC50 relative to telitacicept [1] | EC50 [2] | Emax [2] | EC50 [3] | Emax [3] | EC50 relative to telitacicept [4] | EC50 [5] | Emax [5] | EC50 relative to telitacicept [6] | EC50 relative to telitacicept [7] | EC50 relative to telitacicept [8] | Binder |
| --- | --- | --- | --- | --- | --- | --- | --- | --- | --- | --- | --- |
| – | – | – | – | – | – | 0.201 nM | 2.49 | 0.167 fold | – | – | B613301 (other, Fusion protein of anifrolumab and TACI-BCMA) heavy: EVQLVQSGAEVKKPGESLKISCKGSGYIFTNYWIAWVRQMPGKGLESMGIIYPGDSDIRYSPSFQGQVTISADKSITTAYLQWSSLKASDTAMYYCARHDIEGFDYWGRGTLVTVSSASTKGPSVFPLAPSSKSTSGGTAALGCLVKDYFPEPVTVSWNSGALTSGVHTFPAVLQSSGLYSLSSVVTVPSSSLGTQTYICNVNHKPSNTKVDKRVEPKSCDKTHTCPPCPAPEFEGGPSVFLFPPKPKDTLMISRTPEVTCVVVDVSHEDPEVKFNWYVDGVEVHNAKTKPREEQYNSTYRVVSVLTVLHQDWLNGKEYKCKVSNKALPASIEKTISKAKGQPREPQVYTLPPSRDELTKNQVSLTCLVKGFYPSDIAVEWESNGQPENNYKTTPPVLDSDGSFFLYSKLTVDKSRWQQGNVFSCSVMHEALHNHYTQKSLSLSPGK light: EIVLTQSPGTLSLSPGERATLSCRASQSVSSSFFAWYQQKPGQAPRLLIYGASSRATGIPDRLSGSGSGTDFTLTITRLEPEDFAVYYCQQYDSSAITFGQGTRLEIKRTVAAPSVFIFPPSDEQLKSGTASVVCLLNNFYPREAKVQWKVDNALQSGNSQESVTEQDSKDSTYSLSSTLTLSKADYEKHKVYACEVTHQGLSSPVTKSFNRGECGGGGSGGGGSLSCRKEQGKFYDHLLRDCISCASICGQHPKQCAYFCENKLRSPGMLQMAGQCSQNEYFDSLLHACIPCQLRCSSNTPPLTCQRYCNASVTNSVKGTNA |
| – | – | – | – | – | – | 0.124 nM | 2.52 | – | 0.1 fold | – | B613302 (other, Fusion protein of anifrolumab and TACI-BCMA) heavy: EVQLVQSGAEVKKPGESLKISCKGSGYIFTNYWIAWVRQMPGKGLESMGIIYPGDSDIRYSPSFQGQVTISADKSITTAYLQWSSLKASDTAMYYCARHDIEGFDYWGRGTLVTVSSASTKGPSVFPLAPSSKSTSGGTAALGCLVKDYFPEPVTVSWNSGALTSGVHTFPAVLQSSGLYSLSSVVTVPSSSLGTQTYICNVNHKPSNTKVDKRVEPKSCDKTHTCPPCPAPEFEGGPSVFLFPPKPKDTLMISRTPEVTCVVVDVSHEDPEVKFNWYVDGVEVHNAKTKPREEQYNSTYRVVSVLTVLHQDWLNGKEYKCKVSNKALPASIEKTISKAKGQPREPQVYTLPPSRDELTKNQVSLTCLVKGFYPSDIAVEWESNGQPENNYKTTPPVLDSDGSFFLYSKLTVDKSRWQQGNVFSCSVMHEALHNHYTQKSLSLSPGK light: EIVLTQSPGTLSLSPGERATLSCRASQSVSSSFFAWYQQKPGQAPRLLIYGASSRATGIPDRLSGSGSGTDFTLTITRLEPEDFAVYYCQQYDSSAITFGQGTRLEIKRTVAAPSVFIFPPSDEQLKSGTASVVCLLNNFYPREAKVQWKVDNALQSGNSQESVTEQDSKDSTYSLSSTLTLSKADYEKHKVYACEVTHQGLSSPVTKSFNRGECGGGGSGGGGSMLQMAGQCSQNEYFDSLLHACIPCQLRCSSNTPPLTCQRYCNASVTNSVKGTNALSCRKEQGKFYDHLLRDCISCASICGQHPKQCAYFCENKLRSPG |

More lines, now with the values behind:

| Binder | EC50 relative to telitacicept [1] | EC50 [2] | Emax [2] | EC50 [3] | Emax [3] | EC50 relative to telitacicept [4] | EC50 [5] | Emax [5] | EC50 relative to telitacicept [6] | EC50 relative to telitacicept [7] | EC50 relative to telitacicept [8] |
| --- | --- | --- | --- | --- | --- | --- | --- | --- | --- | --- | --- |
| B575703 (Fc fusion, TACI-BCMA fusion protein; also called TACI-T2-BCMA-ECD-Fc) SRVDQEERFPQGLWTGVAMRSCPEEQYWDPLLGTCMSCKTICNHQSQRTCAAFCRSLSCRKEQGKFYDHLLRDCISCASICGQHPKQCAYFCENKLRSPVNLPPELMLQMAGQCSQNEYFDSLLHACIPCQLRCSSNTPPLTCQRYCNASVTNSVKGTNADKTHTCPPCPAPEAEGAPSVFLFPPKPKDTLMISRTPEVTCVVVDVSHEDPEVKFNWYVDGVEVHNAKTKPREEQYNSTYRVVSVLTVLHQDWLNGKEYKCKVSNKALPSSIEKTISKAKGQPREPQVYTLPPSRDELTKNQVSLTCLVKGFYPSDIAVEWESNGQPENNYKTTPPVLDSDGSFFLYSKLTVDKSRWQQGNVFSCSVMHEALHNHYTQKSLSLSPGK | 0.5 fold | 0.352 nM | 2.43 nM (as printed) | 0.264 nM | 2.78 | 0.333 fold | – | – | – | – | – |
| B575702 (Fc fusion, TACI-BCMA fusion protein; also called BCMA-ECD-TACI-d2-Fc) MLQMAGQCSQNEYFDSLLHACIPCQLRCSSNTPPLTCQRYCNASVTNSVKGTNALSCRKEQGKFYDHLLRDCISCASICGQHPKQCAYFCENKLRSPGDKTHTCPPCPAPEAEGAPSVFLFPPKPKDTLMISRTPEVTCVVVDVSHEDPEVKFNWYVDGVEVHNAKTKPREEQYNSTYRVVSVLTVLHQDWLNGKEYKCKVSNKALPSSIEKTISKAKGQPREPQVYTLPPSRDELTKNQVSLTCLVKGFYPSDIAVEWESNGQPENNYKTTPPVLDSDGSFFLYSKLTVDKSRWQQGNVFSCSVMHEALHNHYTQKSLSLSPGK | 0.25 fold | 0.166 nM | 2.24 nM (as printed) | 0.171 nM | 2.64 | – | – | – | – | – | 0.25 fold |
